Changes are numbered by the printed parent chain. Numbers in names are those of the source. One block for each binder: values may come before it.
Key:
[1] = molecular target: T1, Human MSLN (Acro Biosystems, Cat #: MSN-H5223) (human, UniProt Q13421 296-580, limits assumed); experiment: ELISA, human MSLN protein coated on plate
T1 construct: extracellular domain; Bought protein; also called human MSLN protein; recombinant human MSLN ECD His-tag protein; not shown: His tag

[2] = molecular target: T2, cynomolgus monkey MSLN protein (Harbour BioMed, Batch #: 2019072202) (cynomolgus monkey); experiment: ELISA, cynomolgus monkey MSLN protein coated on plate
T2 construct: also called recombinant cynomolgus monkey MSLN ECD His-tag protein
T2 chain: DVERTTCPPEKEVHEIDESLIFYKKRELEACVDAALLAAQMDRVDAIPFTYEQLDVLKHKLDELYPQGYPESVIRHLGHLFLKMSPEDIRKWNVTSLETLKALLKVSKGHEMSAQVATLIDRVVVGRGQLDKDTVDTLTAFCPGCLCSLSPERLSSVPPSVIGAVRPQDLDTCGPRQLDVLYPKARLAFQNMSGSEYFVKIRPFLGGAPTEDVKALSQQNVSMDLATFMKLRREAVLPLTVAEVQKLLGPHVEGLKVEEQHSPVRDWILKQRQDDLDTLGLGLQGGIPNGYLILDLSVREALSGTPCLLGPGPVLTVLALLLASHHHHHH

T1 sequence (Q13421 other isoform, or with tags, fused parts or gaps limits assumed): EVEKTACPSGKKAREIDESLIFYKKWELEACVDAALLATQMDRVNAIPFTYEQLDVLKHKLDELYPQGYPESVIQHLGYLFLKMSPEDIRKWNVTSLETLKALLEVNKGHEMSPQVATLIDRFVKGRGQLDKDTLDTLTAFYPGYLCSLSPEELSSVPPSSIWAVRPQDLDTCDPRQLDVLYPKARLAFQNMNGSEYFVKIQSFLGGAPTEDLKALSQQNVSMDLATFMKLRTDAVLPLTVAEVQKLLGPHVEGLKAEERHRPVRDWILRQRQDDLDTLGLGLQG

EC50 [1]: 120 pM | Span [1]: 3.42 | EC50 [2]: 50 pM | Span [2]: 2.33
B1: PR300186 (antibody, human IgG1, kappa, V domains shown)
VH: QVQLQESGPGLVKPSETLSLTCTVSGGSINNYYWSWVRQPPGKGLEWIGYIFYSGSTNSNPSLKSRVIISVDTSKNQFSLKLSSVTAADTAVYYCAREVGRIAVAGWFFDLWGRGTLVTVSS
VL: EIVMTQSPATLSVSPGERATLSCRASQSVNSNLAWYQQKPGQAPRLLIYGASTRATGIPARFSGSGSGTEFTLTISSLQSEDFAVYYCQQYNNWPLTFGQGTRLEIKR
notes: Initial antibody from Harbour H2L2 transgenic mice; also called anti-MSLN antibody PR300186

EC50 [1]: 140 pM | Span [1]: 3.36 | EC50 [2]: 50 pM | Span [2]: 2.43
B2: PR300186-2 (antibody, human IgG1, kappa, V domains shown)
VH: B1 VH with N30Q
VL: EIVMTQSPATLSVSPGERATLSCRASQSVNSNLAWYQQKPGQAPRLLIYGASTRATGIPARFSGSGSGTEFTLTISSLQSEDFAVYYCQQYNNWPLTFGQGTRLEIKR
notes: PTM variant of PR300186: Heavy chain N30Q

EC50 [1]: 130 pM | Span [1]: 3.87 | EC50 [2]: 40 pM | Span [2]: 2.18
B3: PR300186-8 (antibody, human IgG1, kappa, V domains shown)
VH: B1 VH with N30Q, S59A
VL: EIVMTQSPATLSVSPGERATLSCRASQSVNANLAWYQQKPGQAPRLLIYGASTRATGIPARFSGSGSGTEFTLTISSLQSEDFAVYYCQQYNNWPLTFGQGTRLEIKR
notes: PTM variant of PR300186: Heavy chain N30Q and S59A, Light chain S31A

EC50 [1]: 140 pM | Span [1]: 3.85 | EC50 [2]: 40 pM | Span [2]: 2.24
B4: PR300186-7 (antibody, human IgG1, kappa, V domains shown)
VH: B1 VH with N30Q
VL: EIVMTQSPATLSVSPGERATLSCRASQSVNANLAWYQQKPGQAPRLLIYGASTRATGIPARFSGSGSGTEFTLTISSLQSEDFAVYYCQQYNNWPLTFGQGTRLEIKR
notes: PTM variant of PR300186: Heavy chain N30Q, Light chain S31A

EC50 [1]: 210 pM | Span [1]: 3.66 | EC50 [2]: 70 pM | Span [2]: 2.67
B5: PR300186-6 (antibody, human IgG1, kappa, V domains shown)
VH: B1 VH with N30Q, S59A
VL: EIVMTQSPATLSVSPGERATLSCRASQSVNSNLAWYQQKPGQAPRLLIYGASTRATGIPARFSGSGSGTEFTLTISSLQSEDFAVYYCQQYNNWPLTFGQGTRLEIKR
notes: PTM variant of PR300186: Heavy chain N30Q and S59A

EC50 [1]: 110 pM | Span [1]: 3.85 | EC50 [2]: 50 pM | Span [2]: 2.19
B6: PR300186-9 (antibody, human IgG1, kappa, V domains shown)
VH: B1 VH
VL: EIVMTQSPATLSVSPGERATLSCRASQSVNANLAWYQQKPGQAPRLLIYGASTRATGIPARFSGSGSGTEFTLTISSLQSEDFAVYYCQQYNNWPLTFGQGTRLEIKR
notes: PTM variant of PR300186: Light chain S31A

EC50 [1]: 180 pM | Span [1]: 3.47 | EC50 [2]: 70 pM | Span [2]: 2.53
B7: PR300186-4 (antibody, human IgG1, kappa, V domains shown)
VH: B1 VH with N30Q, N58Q
VL: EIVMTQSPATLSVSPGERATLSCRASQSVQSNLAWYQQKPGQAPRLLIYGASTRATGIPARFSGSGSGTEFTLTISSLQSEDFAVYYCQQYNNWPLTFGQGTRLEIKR
notes: PTM variant of PR300186: Heavy chain N30Q and N58Q, Light chain N30Q

EC50 [1]: 100 pM | Span [1]: 3.25 | EC50 [2]: 50 pM | Span [2]: 2.36
B8: PR300186-3 (antibody, human IgG1, kappa, V domains shown)
VH: B1 VH with N30Q, N58Q
VL: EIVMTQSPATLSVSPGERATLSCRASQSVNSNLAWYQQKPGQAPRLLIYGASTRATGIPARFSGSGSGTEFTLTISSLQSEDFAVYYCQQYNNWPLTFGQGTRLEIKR
notes: PTM variant of PR300186: Heavy chain N30Q and N58Q

EC50 [1]: 100 pM | Span [1]: 3.71 | EC50 [2]: 40 pM | Span [2]: 2.19
B9: PR300186-10 (antibody, human IgG1, kappa, V domains shown)
VH: B1 VH with N30Q, N58Q
VL: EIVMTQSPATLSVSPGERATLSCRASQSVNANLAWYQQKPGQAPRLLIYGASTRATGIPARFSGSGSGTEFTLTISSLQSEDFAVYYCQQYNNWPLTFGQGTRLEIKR
notes: PTM variant of PR300186: Heavy chain N30Q and N58Q, Light chain S31A

EC50 [1]: 220 pM | Span [1]: 3.61 | EC50 [2]: 70 pM | Span [2]: 2.7
B10: PR300186-5 (antibody, human IgG1, kappa, V domains shown)
VH: B1 VH
VL: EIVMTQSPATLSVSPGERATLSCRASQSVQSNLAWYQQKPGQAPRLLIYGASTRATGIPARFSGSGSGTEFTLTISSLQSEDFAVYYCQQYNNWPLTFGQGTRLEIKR
notes: PTM variant of PR300186: Light chain N30Q

— patent EP4566632A1 (Nona Biosciences (Suzhou) Co., Ltd., dated 2024)
